{
  "source": "paper PMC13538652",
  "biological_target": "T1, GZF1-Flag (UniProt Q4VBD9 1-706)",
  "T1 sequence": "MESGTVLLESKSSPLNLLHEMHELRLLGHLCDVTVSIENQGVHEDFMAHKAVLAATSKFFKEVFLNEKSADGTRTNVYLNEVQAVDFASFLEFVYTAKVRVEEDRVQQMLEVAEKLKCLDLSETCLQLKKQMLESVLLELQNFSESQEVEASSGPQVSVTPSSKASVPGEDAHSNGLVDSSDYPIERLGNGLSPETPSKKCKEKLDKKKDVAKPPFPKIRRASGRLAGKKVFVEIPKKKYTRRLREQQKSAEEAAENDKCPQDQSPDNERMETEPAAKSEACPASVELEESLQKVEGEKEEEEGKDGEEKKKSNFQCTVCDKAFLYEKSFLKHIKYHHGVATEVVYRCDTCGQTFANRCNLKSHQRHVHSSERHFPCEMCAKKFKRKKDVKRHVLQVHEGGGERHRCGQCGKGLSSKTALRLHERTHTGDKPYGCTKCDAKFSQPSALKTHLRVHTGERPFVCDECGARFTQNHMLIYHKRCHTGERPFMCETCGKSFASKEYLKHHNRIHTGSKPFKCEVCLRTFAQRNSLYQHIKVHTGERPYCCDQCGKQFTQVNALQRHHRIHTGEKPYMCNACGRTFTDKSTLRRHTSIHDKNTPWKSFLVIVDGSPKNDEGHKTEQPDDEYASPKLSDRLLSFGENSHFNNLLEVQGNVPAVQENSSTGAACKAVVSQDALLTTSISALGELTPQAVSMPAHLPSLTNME",
  "experiment": "PBM",
  "data": [
    {"binder": "GAGGCCATTACGGTAATGCCTCCTGGCATTACCGTAATGGCCTCACACTC (structured_DNA)", "note": "[Gzf1_bs_unmethylated]", "values": [
      {"measurement": "binding result", "result": "binds"}
    ]}
  ]
}
